Reference: the nanobody polyreactivity screen of Harvey et al. (2022)

Experiment: yeast display, Sf9 membrane polyspecificity reagent, FACS + sequencing; frameworks hold sequencing errors
Summary of the method: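 Nanobodies came from a synthetic yeast display library in Saccharomyces cerevisiae BJ5465, induced with galactose for 36–48 hours and stained for 1 hour at 4 °C with 10% biotinylated, detergent-solubilized Sf9 membrane reagent. Cells were enriched on streptavidin microbeads and then FACS-sorted, with low and high (top ~1%) gates set on anti-HA fluorescence for expression and streptavidin fluorescence for reagent binding. Each polyreactivity label reflects the gate a clone came from. Genes were amplified by colony PCR, sequenced by MiSeq 2 × 250 and filtered by CDR length.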
For “QVQLVESGGRLVQAGGSIRLSCAASGRTFYTNAMGWYRQAPGKERELVAAISSGGSTYYADSVKGRFTISRDNAKNTVYLQMNSLKPEDTAVYYCNVRRGGWGYRYYYWGQGTQVTVSS”, the “polyreactivity (PSR sort gate)” value was “high polyreactivity”. In the case of “QVQLVESGGRLVQAGGSIRLSCAASGSIFVQYAMGWYRPAPGKERELVAAIDFSDTSTYYADSVKGLFTISRDNAKITVYLQMNSLKPEDTAVYYCAAEEDSPSRSAIAVEEYLGQGTQVTVSS”, the “polyreactivity (PSR sort gate)” value is reported as “low polyreactivity”. In the case of “QVQLVESGGRLVQAGGSLLLSCDASGSIFRHYAMGWYRQAPWQERELVAAISAIGGSTYADSVKGRFTISRDNAKNTVYLQMNSLIPEDTGVYYCNARSYTSYVYHEAGEFDYWGQGTQVTVSS”, the “polyreactivity (PSR sort gate)” value is reported as “low polyreactivity”. With “QVQLVESGGRLVQAGGSLRLRCAASGRTFYWNGMGWYRQSPGKERELVAAITVSVGSTYFADSVKGRFTISRDNAKNTVSLQMNSLKPEDTAVYYCNADAYYEARIWSYRKGDYWGQGTQVTVSS” the “polyreactivity (PSR sort gate)” value was “low polyreactivity”. For “QVQLVESGGRLVQAGGSLRLSCAASGFIFGFYAMGWYRQAPGKELELVAANSWSGGSTYYADSVKGRFTISRDKAKNTVFIQMNSLKPVDTAVYYCAAYFVYLDDAVTYDYWGQGTHVTVSS”, the “polyreactivity (PSR sort gate)” value was “low polyreactivity”. With “QVQLVESGGRLVQAGGSLRLSCAASGFIIVFYDMGWYRQAPGKERELVAGITRNDGSTYYADSVKGRFKISRDNAKNTVYLQMNSLKPEDTAVYYCAADRVRRNDKLAYDYWGQGTQVTVSS” the “polyreactivity (PSR sort gate)” value was “low polyreactivity”. In the case of “QVQLVESGGRLVQAGGSLRLSCAASGFTFDVYAMGWYRQAPGKERELVASITLRDGSTYYADSVKGRFTISRDNAKNTVYLQMNSLKPEDTAVYYCAADDSRATYEFEYWGQGTQVTVSS”, the “polyreactivity (PSR sort gate)” value is reported as “low polyreactivity”. In the case of “QVQLVESGGRLVQAGGSLRLSCAASGFTFRYYAMGWYRQAPGKERELVAAINSGGSTNFADSVKGRFTISRDNAKNTVYLQMNSLKPEDTAVYYCAKRGRRGIVYLGSAEMDYWGQGTQVTVSS”, the “polyreactivity (PSR sort gate)” value is reported as “low polyreactivity”. In the case of “QVQLVESGGRLVQAGGSLRLSCAASGFTFVYYAMGWYRQAPGKERELVAAVSWSGGTTYYADSVKGRFTISRDNAKNTVLLQMNSLKPEDTAVYYCNVYPAYNYFDYDYWGQGTQVTVSS”, the “polyreactivity (PSR sort gate)” value is reported as “high polyreactivity”. In the case of “QVQLVESGGRLVQAGGSLRLSCAASGGTFVVYAMGWYSQARGKARELGAAITWIGDSTYYADSVKGRFTISRDNAKNTVYLQMNSLKPEDTAVYYCNAEGGYYLTEYGYWGQGTQETVSS”, the “polyreactivity (PSR sort gate)” value is reported as “low polyreactivity”. In the case of “QVQLVESGGRLVQAGGSLRLSCAASGITFNVYAMGWYRQEPGKERELVAAITSSGATTYYADSVKGRFTISRDNAKNTVYLQMNSLKPEDTSVYYCAAKLSTRRYKYDYWGQGTQVTVSS”, the “polyreactivity (PSR sort gate)” value is reported as “high polyreactivity”. With “QVQLVESGGRLVQAGGSLRLSCAASGITFTAYAMGWYRPAPGKERELVATINSTGITNYADSVKGRFTISRDNAKNTVYLQMNSLKPEDTAVYYCAADLLDISSYDGMDYWGQGTQVTVSS” the “polyreactivity (PSR sort gate)” value was “low polyreactivity”. With “QVQLVESGGRLVQAGGSLRLSCAASGLIFAWYAMGWYRQAPGKQRELVATISWNGDRTYYADSVKVRFTISRDNAKNTVYLQMNSVKPVDSAVYYCAARFGSGFNYWGQGNQVTVSS” the “polyreactivity (PSR sort gate)” value was “high polyreactivity”. With “QVQLVESGGRLVQAGGSLRLSCAASGRIFALNAMGWYRQAPGKERELVAAITWGGGSTYYADSVKGRFTISRDNAKNTVYLQMNSLKPVDTAVYYCAARYVFWPYWISGDSWGQGTQVTVSS” the “polyreactivity (PSR sort gate)” value was “low polyreactivity”. For “QVQLVESGGRLVQAGGSLRLSCAASGRIFGYYAMGRYRQAPGKERQLVAAITSGGSTYYADSVKGRFTISRDNATNTVYLQMHSLKPEDTADYYCNARYWGRTKVYYWGQGTQVTVSS”, the “polyreactivity (PSR sort gate)” value was “high polyreactivity”. In the case of “QVQLVESGGRLVQAGGSLRLSCAASGRIFTGYAMGWYRQAPGKERELVAAISSRGGSTYYADYVKVRFTISRDNAKNTVYLQMNSLKPEDTAVYYCNAYQWRHRYTMYYWGQGTQVTVSS”, the “polyreactivity (PSR sort gate)” value is reported as “high polyreactivity”. With “QVQLVESGGRLVQAGGSLRLSCAASGRISWSYAMGWYRQAPGKERELVAAITSGGTTNYADSVKGRFTISRDNAKNTVYLQMNSLKPEDTAVYYCARDSYQLGLIRDPLEYDYWGQGTQVTVSS” the “polyreactivity (PSR sort gate)” value was “low polyreactivity”. In the case of “QVQLVESGGRLVQAGGSLRLSCAASGRTFEIYSMGRYRHAPGKERELVAAITSGGSTYYADSVKGRFTISRDNAKNTVYLQMNSLKPEDTAVYYCNAYLYYDAHGVDYWGQGTQVTVSS”, the “polyreactivity (PSR sort gate)” value is reported as “high polyreactivity”. In the case of “QVQLVESGGRLVQAGGSLRLSCAASGRTFHKNAMGWYRQAPGKERELVAAISGSGGSTYYADSVKGRFTISRDNAKNTVYLQMNSLKPEDTAVYYCAADSSYYEEDYWGQGTHVTVSS”, the “polyreactivity (PSR sort gate)” value is reported as “high polyreactivity”. For “QVQLVESGGRLVQAGGSLRLSCAASGRTFLVNDMGWYRQAPGKERELVAAINYNAGSTFYADSVKGRFTISRDIAKNTVYLQMNSLKPEDTAVYYCATDVYGYVEYDYWGQGTQVTVSS”, the “polyreactivity (PSR sort gate)” value was “low polyreactivity”. In the case of “QVQLVESGGRLVQAGGSLRLSCAASGRTFQSYAMGWYRQAPGKERELVAAITITGGRTYYADSVKGRFTISRDNAKNTVYLQMNSLKPEDTAVYYCAAEEYSHYTLGYDYWGQGTQVTVSS”, the “polyreactivity (PSR sort gate)” value is reported as “low polyreactivity”. For “QVQLVESGGRLVQAGGSLRLSCAASGRTFRAYVMGWYRQSPGKERELVAAISSSGGRTYYADSVKGRFTISRDNAKNTVYLQMNSLKPEDTAVYYCAAQAVRGGIGEDDYWGQGTQVTVSS”, the “polyreactivity (PSR sort gate)” value was “high polyreactivity”. In the case of “QVQLVESGGRLVQAGGSLRLSCAASGRTFRGYAMGWYRQAPGKEREWVAAISSGGSTYYADSVKGRFTISRDNAKNTVYFQMNSLKPEDTAVSYCDRAVGNYRTLEFDYWGQGTQVTVSS”, the “polyreactivity (PSR sort gate)” value is reported as “low polyreactivity”. With “QVQLVESGGRLVQAGGSLRLSCAASGRTFSTNVMGRYRQAPGKVRELVAAITTSSSRTYYADSVKGRFTISRDNAKNTVYLQMNSLKPEDTAVYYCAAGIHGSWSFDYWGQGTQVTLSS” the “polyreactivity (PSR sort gate)” value was “low polyreactivity”. With “QVQLVESGGRLVQAGGSLRLSCAASGRTFTAYTMGGYRQAPGKERELVASNSSGVTYADSVKGRFTISRDNAKNTVYLQMNSLKPEDTAVYYCAARLWYVQGYVPYVHHRFDYWGQGTQVTVSS” the “polyreactivity (PSR sort gate)” value was “low polyreactivity”. In the case of “QVQLVESGGRLVQAGGSLRLSCAASGRTFVTNAMGWYRQAPGQERELVAAISSNGGSTYYADSVKGRFTISRDNAKNTVYLQMNSLKPEDTAVYYCNAEGQPLYVSWHDHRYIYGFDYWGQGTQVTVSS”, the “polyreactivity (PSR sort gate)” value is reported as “low polyreactivity”. For “QVQLVESGGRLVQAGGSLRLSCAASGRTSVVHAMGWYRTAPGKERELVAAITSGGSTHYPDSVKGRFTISRDNAKNTVYLQMNSLKPEDTAVYYCNARDRRRTNLQDYWGQGTQVTVSS”, the “polyreactivity (PSR sort gate)” value was “low polyreactivity”. In the case of “QVQLVESGGRLVQAGGSLRLSCAASGSIFLAYAMGWYRQAPGKEREFVAAISFSDGSTYYADSVKGRFTISRDNAKNTVYLQMNSLKPEDTAVYYCNKGASPDDYDYWGQGTQVTVSS”, the “polyreactivity (PSR sort gate)” value is reported as “low polyreactivity”. With “QVQLVESGGRLVQAGGSLRLSCAASGSIFRANAMVWYRQAPGNERELVAAISPNGGSTYYADSVKGRFTISRDHAKNTVYLQMNSLKPEDTAVYYCNTDHRNIWFRFKYDYWGQGTQVTVSS” the “polyreactivity (PSR sort gate)” value was “high polyreactivity”. In the case of “QVQLVESGGRLVQAGGSLRLSCAASGSIFRSYAMAWYRPAPGKERELVAGISYSGGSTYYADSVKGRFTISRDNAKNTVYLQMNSLKPEDTAVYYCNVDGGTYFFFVGAWGEYDYWGQGTQVTVSS”, the “polyreactivity (PSR sort gate)” value is reported as “low polyreactivity”. For “QVQLVESGGRLVQAGGSLRLSCAASGSIIVYNTMGWYRQAPGKERELVAAITVRDDSTYYADSVKGRFTISRDNAKNTVYLQMNSLKPEDTAVYYCNARGNFLIGRDYWGQGTQVTVSS”, the “polyreactivity (PSR sort gate)” value was “low polyreactivity”.
